From US20180155451A1 (published 2018)

T1: FcγRIIa R (FcγRIIa, allotype R, Arg at position 131), extracellular domain with C-terminal His tag (human, UniProt P12318 34-217)
T1 construct: extracellular domain; soluble receptor used as Biacore analyte; also called 2aR; FcgRIIa R
T1 sequence (looked up): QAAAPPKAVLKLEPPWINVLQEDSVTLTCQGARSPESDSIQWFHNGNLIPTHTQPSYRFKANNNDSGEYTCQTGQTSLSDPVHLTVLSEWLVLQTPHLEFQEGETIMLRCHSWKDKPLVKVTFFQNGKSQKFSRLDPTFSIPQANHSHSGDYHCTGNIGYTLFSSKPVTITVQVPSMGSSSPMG

T2: FcγRIIb, extracellular domain with C-terminal His tag (human, UniProt P31994 43-217)
T2 construct: extracellular domain; soluble receptor used as Biacore analyte; also called 2b; FcgRIIb
T2 sequence (looked up): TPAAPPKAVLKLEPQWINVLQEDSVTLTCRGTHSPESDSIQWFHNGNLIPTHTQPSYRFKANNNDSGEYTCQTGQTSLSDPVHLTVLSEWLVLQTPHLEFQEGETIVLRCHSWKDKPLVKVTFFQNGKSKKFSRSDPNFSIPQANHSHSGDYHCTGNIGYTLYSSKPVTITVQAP

T3: FcγRIIb extracellular domain with C-terminal His tag (human, UniProt P31994 43-217)
T3 construct: extracellular domain; also called FcgRIIb; 2b; not shown: His tag attached to the C terminus
T3 sequence (looked up): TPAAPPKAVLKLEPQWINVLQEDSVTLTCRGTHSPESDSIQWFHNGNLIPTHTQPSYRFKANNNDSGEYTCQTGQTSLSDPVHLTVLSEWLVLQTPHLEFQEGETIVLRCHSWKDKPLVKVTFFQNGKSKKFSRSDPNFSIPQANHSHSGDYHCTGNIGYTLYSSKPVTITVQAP

B1: heterodimerized antibody GpH7-A5/GpH7-B3 variant A327_01G/GpL16-k0 (antibody, human IgG1, kappa)
heavy 1: not shown
heavy 2: not shown
light: DIVMTQSPLSLPVTPGEPASISCQASESLVHSNRNTYLHWYLQKPGQSPQLLIYKVSNRFSGVPDRFSGSGSGTDFTLKISRVEAEDVGVYYCSQNTHVPPTFGQGTKVEIERTVAAPSVFIFPPSDEQLKSGTASVVCLLNNFYPREAKVQWKVDNALQSGNSQESVTEQDSKDSTYSLSSTLTLSKADYEKHKVYACEVTHQGLSSPVTKSFNRGEC
notes: He Ab: anti-glypican-3 IgG1, alteration in one H chain only; also called He Ab
B2: GpH7-A5/GpH7-B3 variant N325_01G/GpL16-k0 (antibody, human IgG1, kappa)
heavy 1: not shown
heavy 2: not shown
light: DIVMTQSPLSLPVTPGEPASISCQASESLVHSNRNTYLHWYLQKPGQSPQLLIYKVSNRFSGVPDRFSGSGSGTDFTLKISRVEAEDVGVYYCSQNTHVPPTFGQGTKVEIERTVAAPSVFIFPPSDEQLKSGTASVVCLLNNFYPREAKVQWKVDNALQSGNSQESVTEQDSKDSTYSLSSTLTLSKADYEKHKVYACEVTHQGLSSPVTKSFNRGEC
notes: Heterodimerized IgG1; alteration in one H chain only; also called He Ab
B3: heterodimerized antibody GpH7-A5/GpH7-B3 variant L328_19Q/GpL16-k0 (antibody, human IgG1, kappa)
heavy 1: not shown
heavy 2: not shown
light: DIVMTQSPLSLPVTPGEPASISCQASESLVHSNRNTYLHWYLQKPGQSPQLLIYKVSNRFSGVPDRFSGSGSGTDFTLKISRVEAEDVGVYYCSQNTHVPPTFGQGTKVEIERTVAAPSVFIFPPSDEQLKSGTASVVCLLNNFYPREAKVQWKVDNALQSGNSQESVTEQDSKDSTYSLSSTLTLSKADYEKHKVYACEVTHQGLSSPVTKSFNRGEC
notes: as for B1
B4: GpH7-A5/GpH7-B3 variant A327_08L/GpL16-k0 (antibody, human IgG1, kappa)
heavy 1: not shown
heavy 2: not shown
light: DIVMTQSPLSLPVTPGEPASISCQASESLVHSNRNTYLHWYLQKPGQSPQLLIYKVSNRFSGVPDRFSGSGSGTDFTLKISRVEAEDVGVYYCSQNTHVPPTFGQGTKVEIERTVAAPSVFIFPPSDEQLKSGTASVVCLLNNFYPREAKVQWKVDNALQSGNSQESVTEQDSKDSTYSLSSTLTLSKADYEKHKVYACEVTHQGLSSPVTKSFNRGEC
notes: as for B2
B5: GpH7-A5/GpH7-B3 variant A327_03V/GpL16-k0 (antibody, human IgG1, kappa)
heavy 1: not shown
heavy 2: not shown
light: DIVMTQSPLSLPVTPGEPASISCQASESLVHSNRNTYLHWYLQKPGQSPQLLIYKVSNRFSGVPDRFSGSGSGTDFTLKISRVEAEDVGVYYCSQNTHVPPTFGQGTKVEIERTVAAPSVFIFPPSDEQLKSGTASVVCLLNNFYPREAKVQWKVDNALQSGNSQESVTEQDSKDSTYSLSSTLTLSKADYEKHKVYACEVTHQGLSSPVTKSFNRGEC
notes: as for B2
B6: GpH7-A5/GpH7-B3 variant A327_04F/GpL16-k0 (antibody, human IgG1, kappa)
heavy 1: not shown
heavy 2: not shown
light: DIVMTQSPLSLPVTPGEPASISCQASESLVHSNRNTYLHWYLQKPGQSPQLLIYKVSNRFSGVPDRFSGSGSGTDFTLKISRVEAEDVGVYYCSQNTHVPPTFGQGTKVEIERTVAAPSVFIFPPSDEQLKSGTASVVCLLNNFYPREAKVQWKVDNALQSGNSQESVTEQDSKDSTYSLSSTLTLSKADYEKHKVYACEVTHQGLSSPVTKSFNRGEC
notes: as for B2
B7: heterodimerized antibody GpH7-A5/GpH7-B3 variant I332_02A/GpL16-k0 (antibody, human IgG1, kappa)
heavy 1: not shown
heavy 2: not shown
light: DIVMTQSPLSLPVTPGEPASISCQASESLVHSNRNTYLHWYLQKPGQSPQLLIYKVSNRFSGVPDRFSGSGSGTDFTLKISRVEAEDVGVYYCSQNTHVPPTFGQGTKVEIERTVAAPSVFIFPPSDEQLKSGTASVVCLLNNFYPREAKVQWKVDNALQSGNSQESVTEQDSKDSTYSLSSTLTLSKADYEKHKVYACEVTHQGLSSPVTKSFNRGEC
notes: as for B1
B8: GpH7-A5/GpH7-B3 variant A327_09D/GpL16-k0 (antibody, human IgG1, kappa)
heavy 1: not shown
heavy 2: not shown
light: DIVMTQSPLSLPVTPGEPASISCQASESLVHSNRNTYLHWYLQKPGQSPQLLIYKVSNRFSGVPDRFSGSGSGTDFTLKISRVEAEDVGVYYCSQNTHVPPTFGQGTKVEIERTVAAPSVFIFPPSDEQLKSGTASVVCLLNNFYPREAKVQWKVDNALQSGNSQESVTEQDSKDSTYSLSSTLTLSKADYEKHKVYACEVTHQGLSSPVTKSFNRGEC
notes: as for B2
B9: heterodimerized antibody GpH7-A5/GpH7-B3 variant Y300_19Q/GpL16-k0 (antibody, human IgG1, kappa)
heavy 1: not shown
heavy 2: not shown
light: DIVMTQSPLSLPVTPGEPASISCQASESLVHSNRNTYLHWYLQKPGQSPQLLIYKVSNRFSGVPDRFSGSGSGTDFTLKISRVEAEDVGVYYCSQNTHVPPTFGQGTKVEIERTVAAPSVFIFPPSDEQLKSGTASVVCLLNNFYPREAKVQWKVDNALQSGNSQESVTEQDSKDSTYSLSSTLTLSKADYEKHKVYACEVTHQGLSSPVTKSFNRGEC
notes: as for B1
B10: GpH7-A5/GpH7-B3 variant S298_05P/GpL16-k0 (antibody, human IgG1, kappa)
heavy 1: not shown
heavy 2: not shown
light: DIVMTQSPLSLPVTPGEPASISCQASESLVHSNRNTYLHWYLQKPGQSPQLLIYKVSNRFSGVPDRFSGSGSGTDFTLKISRVEAEDVGVYYCSQNTHVPPTFGQGTKVEIERTVAAPSVFIFPPSDEQLKSGTASVVCLLNNFYPREAKVQWKVDNALQSGNSQESVTEQDSKDSTYSLSSTLTLSKADYEKHKVYACEVTHQGLSSPVTKSFNRGEC
notes: as for B2
B11: GpH7-A5/GpH7-B3 variant Y300_05P/GpL16-k0 (antibody, human IgG1, kappa)
heavy 1: not shown
heavy 2: not shown
light: DIVMTQSPLSLPVTPGEPASISCQASESLVHSNRNTYLHWYLQKPGQSPQLLIYKVSNRFSGVPDRFSGSGSGTDFTLKISRVEAEDVGVYYCSQNTHVPPTFGQGTKVEIERTVAAPSVFIFPPSDEQLKSGTASVVCLLNNFYPREAKVQWKVDNALQSGNSQESVTEQDSKDSTYSLSSTLTLSKADYEKHKVYACEVTHQGLSSPVTKSFNRGEC
notes: as for B2
B12: GpH7-A5/GpH7-B3 variant A327_07I/GpL16-k0 (antibody, human IgG1, kappa)
heavy 1: not shown
heavy 2: not shown
light: DIVMTQSPLSLPVTPGEPASISCQASESLVHSNRNTYLHWYLQKPGQSPQLLIYKVSNRFSGVPDRFSGSGSGTDFTLKISRVEAEDVGVYYCSQNTHVPPTFGQGTKVEIERTVAAPSVFIFPPSDEQLKSGTASVVCLLNNFYPREAKVQWKVDNALQSGNSQESVTEQDSKDSTYSLSSTLTLSKADYEKHKVYACEVTHQGLSSPVTKSFNRGEC
notes: as for B2
B13: heterodimerized antibody GpH7-A5/GpH7-B3 variant S239_03V/GpL16-k0 (antibody, human IgG1, kappa)
heavy 1: not shown
heavy 2: not shown
light: DIVMTQSPLSLPVTPGEPASISCQASESLVHSNRNTYLHWYLQKPGQSPQLLIYKVSNRFSGVPDRFSGSGSGTDFTLKISRVEAEDVGVYYCSQNTHVPPTFGQGTKVEIERTVAAPSVFIFPPSDEQLKSGTASVVCLLNNFYPREAKVQWKVDNALQSGNSQESVTEQDSKDSTYSLSSTLTLSKADYEKHKVYACEVTHQGLSSPVTKSFNRGEC
notes: as for B1
B14: GpH7-A5/GpH7-B3 variant A327_01G/GpL16-k0 (antibody, human IgG1, kappa)
heavy 1: not shown
heavy 2: not shown
light: DIVMTQSPLSLPVTPGEPASISCQASESLVHSNRNTYLHWYLQKPGQSPQLLIYKVSNRFSGVPDRFSGSGSGTDFTLKISRVEAEDVGVYYCSQNTHVPPTFGQGTKVEIERTVAAPSVFIFPPSDEQLKSGTASVVCLLNNFYPREAKVQWKVDNALQSGNSQESVTEQDSKDSTYSLSSTLTLSKADYEKHKVYACEVTHQGLSSPVTKSFNRGEC
notes: as for B2

What was measured:
[1] = target: T1, FcγRIIa R (FcγRIIa, allotype R, Arg at …); test: Biacore SPR; binding relative to GpH7-A5/GpH7-B3/GpL16-k0 (=100)
Experimental: (§1) The heterodimerized antibodies He Abs in which one of the H chains was introduced with an alteration were assayed for their binding activities to each activating FcγR and inhibitory FcγR according to the method described in Example 4. […] The activating FcγRs in FIGS. 26, 27, 28, and 29 are FcγRIa, FcγRIIa (R), FcγRIIa (H), and FcγRIIIa, respectively.
(§2) Analysis of interaction between objective antibody and the FcγR was carried out using Biacore T100 (GE Healthcare). HBS-EP+ (GE Healthcare) was used as the running buffer, and the measurement temperature was set to 25° C. Chips produced by immobilizing the antigen peptide by the amine coupling method to a Series S Sencor Chip CM5 (GE Healthcare), or alternatively, chips produced by allowing preliminarily biotinylated antigen peptides to interact with and immobilize onto a Series S Sensor Chip SA (certified) (GE Healthcare) were used. Antibodies of interest were captured onto an antigen peptide-immobilized chip, and allowed to interact to each FcγR diluted with running buffer. To regenerate and repeatedly use the chip, the antibodies captured on the chip were washed off by reacting 10 mM glycine-HCl, pH 1.5.

[2] = target: T2, FcγRIIb, extracellular domain with …; test: as above
Experimental: as §1, §2

[3] = target: T4, FcγRIIIa extracellular domain with C-terminal His tag (human, UniProt P08637 17-208); test: SPR (Biacore); He/Con_3a divided by He/Con_2b (reference: binding to FcγRIIb)
T4 construct: extracellular domain; also called FcgRIIIa; 3a; not shown: His tag attached to the C terminus
Experimental: as §2
(§3) The FcγR-binding activity of each antibody was assessed primarily using as an indicator the FcγR-binding activity and dissociation constant for FcγR.

[4] = target: T4, FcγRIIIa extracellular domain with …; test: SPR (Biacore), relative binding
Experimental: as §2, §3

[5] = target: T3, FcγRIIb extracellular domain with …; test: SPR (Biacore), relative binding
Experimental: as §2, §3

T4 sequence (P08637 17-208): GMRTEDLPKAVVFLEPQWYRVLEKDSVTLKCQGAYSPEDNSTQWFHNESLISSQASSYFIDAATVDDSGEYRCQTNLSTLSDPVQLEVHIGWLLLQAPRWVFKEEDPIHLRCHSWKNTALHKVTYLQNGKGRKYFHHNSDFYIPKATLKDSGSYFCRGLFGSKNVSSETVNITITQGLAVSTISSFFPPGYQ

Binder | He/Con_2aR (IIaR binding) [1] | He/Con_2b (IIb binding) [2] | He_3a/2b (IIIa/IIb) [3] | He/Con_3a (IIIa binding) [4] | He/Con_2b (IIb binding) [5]
B1 | 98.2 % of control | 116 % of control |  |  | 
B2 |  |  | 0.28 ratio | 28 % of GpH7-A5/GpH7-B3/GpL16-k0 (=100) | 101 % of GpH7-A5/GpH7-B3/GpL16-k0 (=100)
B3 | 89.3 % of control | 105 % of control |  |  | 
B4 |  |  | 0.67 ratio | 42 % of GpH7-A5/GpH7-B3/GpL16-k0 (=100) | 63.1 % of GpH7-A5/GpH7-B3/GpL16-k0 (=100)
B5 |  |  | 0.48 ratio | 45.8 % of GpH7-A5/GpH7-B3/GpL16-k0 (=100) | 94.7 % of GpH7-A5/GpH7-B3/GpL16-k0 (=100)
B6 |  |  | 0.72 ratio | 46.2 % of GpH7-A5/GpH7-B3/GpL16-k0 (=100) | 63.7 % of GpH7-A5/GpH7-B3/GpL16-k0 (=100)
B7 | 97.6 % of control | 103 % of control |  |  | 
B8 |  |  | 0.49 ratio | 83.7 % of GpH7-A5/GpH7-B3/GpL16-k0 (=100) | 172 % of GpH7-A5/GpH7-B3/GpL16-k0 (=100)
B9 | 99.7 % of control | 108 % of control |  |  | 
B10 |  |  |  |  | 11.9 % of GpH7-A5/GpH7-B3/GpL16-k0 (=100)
B11 |  |  | 0.38 ratio | 2.8 % of GpH7-A5/GpH7-B3/GpL16-k0 (=100) | 
B12 |  |  | 0.33 ratio | 42.4 % of GpH7-A5/GpH7-B3/GpL16-k0 (=100) | 127 % of GpH7-A5/GpH7-B3/GpL16-k0 (=100)
B13 | 99.9 % of control | 108 % of control |  |  | 
B14 |  |  | 0.63 ratio | 72.4 % of GpH7-A5/GpH7-B3/GpL16-k0 (=100) | 116 % of GpH7-A5/GpH7-B3/GpL16-k0 (=100)
